Our source for the EC50, agonist activity in an Aequorin assay and EC50, activity (partial agonist) in an Aequorin assay values is patent US20180038859A1.

Targets include CXCR1 (human) (UniProt P25024); hCCR2b (human) (UniProt P41597); hCCR2b (human), P41597.
Assay in all cases: cell-based or functional assay

hCCR2b (human), sequence (P41597 whole entry): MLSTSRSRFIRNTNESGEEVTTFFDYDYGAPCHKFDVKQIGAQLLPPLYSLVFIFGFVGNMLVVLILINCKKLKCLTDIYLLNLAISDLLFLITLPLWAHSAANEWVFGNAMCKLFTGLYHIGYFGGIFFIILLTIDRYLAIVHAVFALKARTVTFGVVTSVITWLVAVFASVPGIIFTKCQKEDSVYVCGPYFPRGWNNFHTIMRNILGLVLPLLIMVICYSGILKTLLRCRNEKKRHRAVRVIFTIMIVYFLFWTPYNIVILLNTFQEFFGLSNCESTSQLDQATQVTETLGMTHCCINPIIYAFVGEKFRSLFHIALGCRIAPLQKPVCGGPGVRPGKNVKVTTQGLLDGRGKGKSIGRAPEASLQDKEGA
hCCR2b (human), P41597, sequence (P41597 whole entry): as above
CXCR1 (human), sequence (P25024 whole entry): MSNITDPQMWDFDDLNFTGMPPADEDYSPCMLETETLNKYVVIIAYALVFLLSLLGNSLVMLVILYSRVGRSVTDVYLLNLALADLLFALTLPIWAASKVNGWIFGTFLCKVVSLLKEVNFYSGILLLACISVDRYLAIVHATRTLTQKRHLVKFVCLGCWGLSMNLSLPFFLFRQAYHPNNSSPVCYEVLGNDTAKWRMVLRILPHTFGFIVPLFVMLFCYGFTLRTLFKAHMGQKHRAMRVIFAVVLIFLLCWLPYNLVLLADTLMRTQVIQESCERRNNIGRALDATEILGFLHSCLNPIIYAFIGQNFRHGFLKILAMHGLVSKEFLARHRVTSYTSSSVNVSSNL

Molecule “recombinant native IL-8 (from UniProt P10145 28-99) (ligand)” displayed an EC50, agonist activity in an Aequorin assay with CXCR1 (human) of 5.2 nM.

The molecule “recombinant native MCP-1 (from UniProt P13500 24-99) (ligand)” yielded an EC50, agonist activity in an Aequorin assay in the assay with hCCR2b (human) of 3.1 nM.

Take “recombinant native MCP-2 (from UniProt P80075 24-99) (ligand)”: in the assay with hCCR2b (human), the EC50, activity (partial agonist) in an Aequorin assay came out at 23.5 nM.

B1: biotinMCP-2 (CCL8), P80075 24-99 (ligand)
chain: QPDSVSIPITCCFNVINRKIPIQRLESYTRITNIQCPKEAVIFKTKRGKEVCADPKERWVRDSMKHLDQIFQNLKP
modifications: here or on the partner: pyroGlu at position 1 (replaces Gln1); Lys75 epsilon-amino PEG-Biotin; C-terminal amide
In turn, B1 showed an EC50, activity (partial agonist) in an Aequorin assay with hCCR2b (human), P41597 of 50.9 nM.
